The values below come from PMC2853113.

As usually defined, the Kd is the concentration at which binding is half-saturated. Low values mean tighter binding, high ones weaker binding.

Residue numbers refer to the chain shown, from its start. Read-outs that look alike come from different tables or passages of the source.

For one data set, the target named is T1, YvoA-K24C-G97C (Bacillus subtilis, UniProt O34817 1-243, K24C;G97C).
T1 sequence: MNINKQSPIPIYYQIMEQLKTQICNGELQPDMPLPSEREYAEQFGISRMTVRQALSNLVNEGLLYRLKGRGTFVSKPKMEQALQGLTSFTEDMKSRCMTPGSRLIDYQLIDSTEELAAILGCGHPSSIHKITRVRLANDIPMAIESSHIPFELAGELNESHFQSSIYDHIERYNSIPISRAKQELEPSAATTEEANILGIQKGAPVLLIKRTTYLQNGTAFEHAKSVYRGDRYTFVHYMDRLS
The data set can be described thus: analytical gel filtration.

The target of the next data set is T2, YvoA-E61C-L242C (Bacillus subtilis, UniProt O34817 1-243, E61C;L242C).
T2 sequence: T1 sequence with C24K, E61C, C97G, L242C
Kind of data set: analytical gel filtration. For orientation: SEC sorts molecules by how far they enter the pores of the column.

In data set [1] the target is T3, YvoA wild-type (Bacillus subtilis, UniProt O34817 1-243).
T3 sequence: T1 sequence with C24K, C97G
The data set can be described thus: ITC.

Data set [2] addresses T3, YvoA wild-type. Kind of data set: ITC. The source holds these as a separate data set.

B1: YvoA operator dsDNA (18mer) (dsDNA)
DNA 1: ATTGGTATAGATCACTAG
DNA 2: CTAGTGATCTATACCAAT
Consider B1, for which the binding result with YvoA-K24C-G97C and with YvoA-E61C-L242C was “binds” each time. Further, the results for the Kd with YvoA wild-type [1] and with YvoA wild-type [2] were 131 nM and 2.9 nM, respectively.
